Reference: publication PMC12480940

Key:
Experiment in all cases: SPR; Biacore T200, 25 °C, pH 5.5 (177 mM phosphate, 85 mM NaCl, 0.005% TWEEN-20); FIX-HSA variants amine-coupled (200 RU) on CM5; soluble His-tagged hFcRn (15.6-2000.0 nM for HSAWT, 1.95-62.5 nM for HSAQMP) or mFcRn (7.8-8000.0 nM for HSAWT, 3.9-500 nM for HSAQMP) injected; 1:1 Langmuir model
Padua-HSAQMP (human) = target: Padua-HSAQMP (human)
PaduaKA-HSAQMP (human) = PaduaKA-HSAQMP (human) (UniProt P02768)
PaduaKR-HSAQMP (human) = PaduaKR-HSAQMP (human) (UniProt P02768)
FIXKR-HSAWT (human) = FIXKR-HSAWT (human) (UniProt P02768)
FIXKA-HSAWT (human) = FIXKA-HSAWT (human) (UniProt P02768)

Row | Kd (Padua-HSAQMP (human)) | koff (Padua-HSAQMP (human)) | Kd (PaduaKA-HSAQMP (human)) | koff (PaduaKA-HSAQMP (human)) | Kd (PaduaKR-HSAQMP (human)) | koff (PaduaKR-HSAQMP (human)) | Kd (FIXKR-HSAWT (human)) | koff (FIXKR-HSAWT (human)) | Kd (FIXKA-HSAWT (human)) | koff (FIXKA-HSAWT (human)) | Substance
1 | 44.6 nM | 0.00512 s⁻¹ | 51.7 nM | 0.0028 s⁻¹ | 54.9 nM | 0.00429 s⁻¹ | – | – | – | – | soluble truncated His-tagged mouse neonatal Fc receptor (from UniProt Q61559 22-297; P01887 21-119)
2 | – | – | 0.2 nM | 6e-05 s⁻¹ | 0.3 nM | 7e-05 s⁻¹ | 190 nM | 0.00827 s⁻¹ | 177 nM | 0.00769 s⁻¹ | soluble truncated His-tagged human neonatal Fc receptor (from UniProt P55899 24-297; P61769 21-119)
